The target in test [1] is T1, RAGE-Fc (human, UniProt Q15109 23-344, limits assumed).
T1 construct: also called hRAGE; not shown: Fc part, detected with anti-hIgG Fc-specific conjugate
Nature of the test: competition ELISA, RAGE-HMGB1 interaction. For orientation: An ELISA detects its analyte on a solid surface through an enzyme-linked reagent.

Test [2] has as its target T1, RAGE-Fc. Nature of the test: competition ELISA, hRAGE-S100A6 interaction.
For test [3], the target named is T1, RAGE-Fc. In words: competition ELISA, RAGE-S100B interaction.
Test [4] concerns the target T2, sRAGE (V-C1-C2) lot LP08062 (human, UniProt Q15109 23-331, limits assumed).
T2 construct: domain: V-C1-C2; also called Human RAGE; LP08062 (Rage)
Nature of the test: SPR (Biacore), mAb captured on anti-mouse Fc, sRAGE 15 nM, Langmuir 1:1. The procedure: The assay is based on a capture assay using immobilized anti-mouse Fc IgG on CM5 chip. For immobilization of anti-Fc antibody HBS-EP was used as running buffer. Standard amine coupling to a CM5 chip was carried out at a contact time of 11 min and a flow rate of 10 μl/min. 10 mM Sodium Acetate pH 5.0 was used as immobilization buffer. The protein concentration (anti-mouse Fc, Biacore BR-1008-38) was 100 μg/mL.
For binding analysis SN anti-RAGE mAb diluted in running buffer at 1/10 (flow rate 5 μl/min) and sRAGE (V-C1-C2) lot LP08062 diluted in running buffer at 15 nM (flow rate 50 μl/min) was used as […], respectively (running buffer: HBS-P+BSA 12 mg/mL+CM Dextran 12 mg/mL and Regeneration solution: 10 mM Glycine pH 1.7). Langmuir 1:1 analysis was used as fitting model.

For test [5], the target named is T1, RAGE-Fc. In words: competition ELISA, RAGE-Fc binding to coated S100A6. As for the experimental part:
(§1) For the S100A6 Competition ELISA Assay wells have been coated with S100A6 at 0.5 μg/well. Thereafter, RAGE-Fc at 10 μg/mL and competing mAb at 10 μg/mL have been pre-incubated at room temperature for 30 min. The mixture was transferred into S100A6-coated plates and incubated under agitation at room temperature for 2 hours. Bound RAGE-Fc was detected with anti-hIgG Fc-specific-POD using TMB (3, 3′, 5, 5′-Tetramethylbenzidine) at 450 nm.
For this, coating with S100A6 was carried out as detailed above. RAGE-Fc at 10 μg/mL was incubetd with competing mAb (2-fold serial dilutions starting at 100 μg/ml at room temperature for 2 hours. Binding was detected by anti IgG Fc-specific antibody peroxydase conjugate using TMB1 component HRP at 450 nm.

In test [6] the target is T1, RAGE-Fc. Nature of the test: competition ELISA against S100A6, mAb 10 µg/mL. As for the experimental part: as §1
Test [7] concerns the target T1, RAGE-Fc. Nature of the test: competition ELISA, RAGE-S100A6 interaction.
Test [8] deals with T1, RAGE-Fc. In words: competition ELISA, hRAGE-HMGB1 interaction.
A further test deals with T3, RAGE C2 domain (UniProt Q15109 235-327, limits assumed).
T3 construct: domain: C2 domain
T3 sequence (Q15109 235-327 limits assumed): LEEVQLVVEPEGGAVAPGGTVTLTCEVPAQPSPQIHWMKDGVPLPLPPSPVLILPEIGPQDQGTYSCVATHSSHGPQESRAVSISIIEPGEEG
In words: domain mapping, Table 1.

Test [9] addresses T1, RAGE-Fc. Nature of the test: competition ELISA, hRAGE-S100B interaction.
The next test deals with rat sRAGE (rat, UniProt Q63495 23-341, limits assumed). In words: ELISA, O.D. 450 nm, one bar per species; plate format and antibody concentration not given.
rat sRAGE, sequence (Q63495 23-341 limits assumed): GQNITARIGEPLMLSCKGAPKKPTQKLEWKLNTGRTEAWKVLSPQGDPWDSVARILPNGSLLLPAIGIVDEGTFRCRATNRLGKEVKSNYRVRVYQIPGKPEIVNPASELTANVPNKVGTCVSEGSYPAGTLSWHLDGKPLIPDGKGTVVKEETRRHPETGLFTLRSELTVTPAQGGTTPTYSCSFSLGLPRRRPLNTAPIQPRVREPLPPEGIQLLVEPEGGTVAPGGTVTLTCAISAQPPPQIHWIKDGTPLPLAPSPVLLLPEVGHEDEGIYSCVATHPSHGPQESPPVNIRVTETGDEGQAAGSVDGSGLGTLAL
A further test deals with mouse sRAGE (mouse, UniProt Q62151 23-340, limits assumed). Described as above.
mouse sRAGE, sequence (Q62151 23-340 limits assumed): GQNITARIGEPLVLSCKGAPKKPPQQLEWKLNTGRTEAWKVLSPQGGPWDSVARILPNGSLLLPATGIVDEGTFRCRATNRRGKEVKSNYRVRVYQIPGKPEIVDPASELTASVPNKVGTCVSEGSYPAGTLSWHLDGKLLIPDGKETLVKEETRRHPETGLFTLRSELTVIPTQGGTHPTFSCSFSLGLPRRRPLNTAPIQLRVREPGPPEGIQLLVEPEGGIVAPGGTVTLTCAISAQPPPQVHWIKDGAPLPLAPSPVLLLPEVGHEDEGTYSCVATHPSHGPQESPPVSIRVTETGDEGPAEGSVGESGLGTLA
A further test addresses T4, RAGE V domain (UniProt Q15109 23-121, limits assumed).
T4 construct: domain: V domain
In words: domain mapping, Table 1.

The target in the next test is T5, RAGE V-C1 domains (UniProt Q15109 23-233, limits assumed).
T5 construct: domain: V-C1 domains
T5 sequence (Q15109 23-233 limits assumed): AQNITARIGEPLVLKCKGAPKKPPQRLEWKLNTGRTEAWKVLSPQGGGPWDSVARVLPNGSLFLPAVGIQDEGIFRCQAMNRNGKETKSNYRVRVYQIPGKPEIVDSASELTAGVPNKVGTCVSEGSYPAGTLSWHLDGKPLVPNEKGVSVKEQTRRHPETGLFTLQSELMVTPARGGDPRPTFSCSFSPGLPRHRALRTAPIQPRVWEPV
In words: domain mapping, Table 1.

Values joined by “and” are separate entries in the source; they are usually repeats but may differ in a detail not shown here. Equal entries are not always repeated.

T1 sequence (Q15109 23-344 limits assumed): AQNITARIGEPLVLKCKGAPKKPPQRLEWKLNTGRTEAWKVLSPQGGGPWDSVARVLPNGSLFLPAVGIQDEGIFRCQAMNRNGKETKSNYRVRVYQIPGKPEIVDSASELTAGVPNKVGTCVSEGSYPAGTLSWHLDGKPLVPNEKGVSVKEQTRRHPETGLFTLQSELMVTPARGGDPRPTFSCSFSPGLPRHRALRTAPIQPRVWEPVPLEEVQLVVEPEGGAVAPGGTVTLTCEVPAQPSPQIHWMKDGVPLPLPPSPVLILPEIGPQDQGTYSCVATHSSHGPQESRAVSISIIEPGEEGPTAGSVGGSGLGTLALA
T4 sequence (Q15109 23-121 limits assumed): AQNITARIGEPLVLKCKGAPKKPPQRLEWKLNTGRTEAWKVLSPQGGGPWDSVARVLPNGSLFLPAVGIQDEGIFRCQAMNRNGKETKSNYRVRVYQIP
T2 sequence (Q15109 23-331 limits assumed): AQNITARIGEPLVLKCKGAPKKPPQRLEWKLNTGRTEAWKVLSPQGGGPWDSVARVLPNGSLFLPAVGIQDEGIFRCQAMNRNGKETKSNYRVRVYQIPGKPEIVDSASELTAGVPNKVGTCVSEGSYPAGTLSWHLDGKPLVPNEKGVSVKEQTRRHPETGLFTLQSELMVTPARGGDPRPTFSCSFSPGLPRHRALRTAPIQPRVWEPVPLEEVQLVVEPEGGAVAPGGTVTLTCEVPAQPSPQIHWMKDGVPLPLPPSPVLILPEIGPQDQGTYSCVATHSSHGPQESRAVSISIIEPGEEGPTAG

B1: 158 RAGE-1 (antibody, V domains shown)
VH: QIQLVQSGPELKKPGETVKISCKASGYTFTDYSMHWVKQAPGKGLKWMGWINTETGEPTYADDFKGRFAFSLETSASTAYLLINNLKTEDTATYFCARDYLYYYAMDYWGQGTSVTVSS
VL: DVVLTQTPLSLPVNIGDQASISCKSTKSLLNSDGFTYLDWYLQKPGQSPQLLIYLVSNRFSGVPDRFSGSGSGTDFTLKISRVEAEDLGVYYCFQSNYLPLTFGGGTKVEIK
notes: Anti-RAGE monoclonal antibody from a hybridoma, captured by anti-mouse Fc; also called LP08105
Usually IC50 stands for the midpoint of a concentration-inhibition curve. One may read the Kd as the constant that tells how readily two partners part at equilibrium. Broadly, the koff is the first-order rate constant of dissociation. By kon is commonly meant the rate constant with which the complex forms. Read a low kon as slow association. B1: the IC50 was 1.4 nM with RAGE-Fc [1]; 0.7 nM in the test with RAGE-Fc [3]; 6.79 µg/mL in the test with RAGE-Fc [5]; 45.3 nM with RAGE-Fc [7]; 0.29 µg/mL and 1.39 nM with RAGE-Fc [8]; 0.109 µg/mL with RAGE-Fc [9]. Also, in the test with RAGE-Fc [2], the maximum inhibitory effect is ≤ 50%. Moreover, in test [4], the Kd worked out at 0.629 nM. The same molecule registered a koff in [4] of 0.00253 s⁻¹. In addition, in [4], the kon came out at 4.02e+06 M⁻¹ s⁻¹. Besides, the inhibitory effect with RAGE-Fc [6] is > 20%. Moreover, the binding result with RAGE C2 domain was “no binding”; in the test with rat sRAGE it was “no binding (tested: not given)”; in the test with mouse sRAGE, “no binding (tested: not given)”.

B2: 240 RAGE-1 (antibody, V domains shown)
VH: QIQLVQSGPELKKPGETVKISCKASGYTFTDYSMHWVKQAPGKGLKWMGWINTETGEPTYADDFKGRFAFSLETSASTAYLQINNLKNEDTATYFCARDYLYYYAMDYWGQGTSVTVSS
VL: DVVLTQTPLSLPVSIGDQASISCKSTKSLLNSDGFTYLDWYLQKPGQSPQLLIYLVSNRFSGVPDSFSGSGSGTDFTLKISRVEAEDLGVYYCFQSNYFPLTFGGGTTLEIK
notes: Anti-RAGE monoclonal antibody from a hybridoma, captured by anti-mouse Fc; also called LP08108
For the molecule B2, the IC50 was 2.1 nM in the test with RAGE-Fc [1]; 0.8 nM with RAGE-Fc [3]; 6.66 µg/mL in the test with RAGE-Fc [5]; 44.4 nM with RAGE-Fc [7]; 0.31 µg/mL and 2.06 nM with RAGE-Fc [8]; 0.123 µg/mL with RAGE-Fc [9]. Moreover, the maximum inhibitory effect with RAGE-Fc [2] is ≤ 50%. The molecule also had a Kd in test [4] of 0.222 nM. Moreover, the dissociation rate constant (koff) in test [4] was determined as 0.000769 s⁻¹. In test [4], this molecule came in with a kon of 3.47e+06 M⁻¹ s⁻¹. Further, the inhibitory effect with RAGE-Fc [6] is > 20%. Further, the binding result with RAGE C2 domain is listed as “no binding”; with rat sRAGE, “no binding (tested: not given)”; with mouse sRAGE it was “no binding (tested: not given)”.

B3: Control XT-M4 (antibody, V domains shown)
VH: EVQLVESGGGLVQPGRSLKLSCVVSGFTFNNYWMTWIRQTPGKGLEWVASINNSGDNTYYPDSVKDRFTISRDNAKSTLYLQMNSLRSEDTATYYCTRGGDITTGFDYWGQGVMVTVSS
VL: DIQMTQSPSSMSVSLGDTITITCRASQDVGIYVNWFQQKPGKSPRRMIYRATNLADGVPSRFSGSRSGSIYSLTISSLESEDVADYHCLEFDEHPLTFGSGTKVEIK
With B3, the IC50 is 1.79 nM with RAGE-Fc [1]; 1.37 nM with RAGE-Fc [3]; 5.2 µg/mL in the test with RAGE-Fc [5]; 34.6 nM in the test with RAGE-Fc [7]; 0.272 µg/mL with RAGE-Fc [8]; 0.208 µg/mL in the test with RAGE-Fc [9].

B4: 166 RAGE-1 (antibody, V domains shown)
VH: QVQLQQSGPELVKPGTSVRISCKASGYTFTSYYIHWVKQRPGQGLEWIGWIYPGNVITNYHEKFKGKASLTADKSSSTAYMQLSSLTSEDSAVYFCAREDPFAYWGQGTLVTVSA
VL: NIMMTQSPSSLAVSAGEKVTMSCKSSQSVLYSSNQKNYLAWYQQKPGQSPKLLIYWASTRESGVPDRFTGSGSGTDFTLTISSVQAEDLAVYYCHQYLSSYTFGGGTKLEIK
notes: Anti-RAGE monoclonal antibody from a hybridoma, captured by anti-mouse Fc; also called LP08122; LP08122D
Regarding B4, in the test with RAGE-Fc [2], the maximum inhibitory effect was ≤ 50%. Also, the IC50 stood at 0.8 nM with RAGE-Fc [3], 8.33 µg/mL in the test with RAGE-Fc [5], 55.5 nM with RAGE-Fc [7] and 0.128 µg/mL in the test with RAGE-Fc [9]. The molecule further gave a Kd in test [4] of 0.234 nM. In addition, the koff in test [4] was found to be 0.000758 s⁻¹. Moreover, in test [4], the kon was found to be 3.24e+06 M⁻¹ s⁻¹. In the test with RAGE-Fc [6], the inhibitory effect was > 20%. Moreover, the binding result in the test with RAGE C2 domain was “no binding”; with RAGE V domain it was “no binding”; with rat sRAGE, “no binding (tested: not given)”; with mouse sRAGE, “no binding (tested: not given)”.

B5: 56 RAGE-1 (antibody, V domains shown)
VH: QVQLQQSGPELVKPGASVRISCKASGYTFTSYFIHWVKQRPGQGLEWIGWIYPGNVNTKYNEKFKDKATLTADKSSSTAYMQLSNLTSEDSAVYFCVRGQLGDYWGQGITLTVSS
VL: DIVMTQSQKFMSTSVGDRVSVTCKASQNVGINVAWYQQKPGQSPKALIYSASYRYSGVPDRFTGSGSGTDFTLIISNVQSEDLAEYFCQQYNNYPRTFGGGTKLEIK
notes: Anti-RAGE monoclonal antibody from a hybridoma, captured by anti-mouse Fc; also called LP08103; Protein 56 RAGE-1
With B5, the maximum inhibitory effect in the test with RAGE-Fc [2] is ≤ 50%. In [4], this molecule had a Kd of 1.87 nM, a koff of 0.00539 s⁻¹ and a kon of 2.89e+06 M⁻¹ s⁻¹. In addition, the IC50 with RAGE-Fc [5] is 1.16 µg/mL and 7.73 nM. Also, in the test with RAGE-Fc [6], the inhibitory effect was > 20%. Moreover, the IC50 in the test with RAGE-Fc [7] came out at 7.7 nM. In the test with RAGE V-C1 domains, the binding result is on record as “no binding”. Also, the binding result with RAGE V domain is listed as “no binding”.

B6: 164 RAGE-1 (antibody, V domains shown)
VH: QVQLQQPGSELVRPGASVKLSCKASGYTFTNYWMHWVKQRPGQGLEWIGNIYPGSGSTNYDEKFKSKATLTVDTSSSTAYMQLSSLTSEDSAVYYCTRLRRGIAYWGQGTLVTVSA
VL: NIVMTQSPKSMSMSVGERVTLSCKASENVGTYVSWYQQKPEQSPKLLIYGASNRYTGVPDRFTGSGSATDFTLTISSVQAEDLADYHCGQSYTYPYTFGGGTKLEIK
notes: Anti-RAGE monoclonal antibody from a hybridoma, captured by anti-mouse Fc; also called LP08106; Protein 164 RAGE-1
On to B6, for which, in [4], the Kd stood at 1.13 nM, the koff is 0.00203 s⁻¹ and the kon is 1.8e+06 M⁻¹ s⁻¹. For the same molecule, in the test with RAGE V-C1 domains, the binding result is reported as “no binding”. Moreover, in the test with RAGE V domain, the binding result is reported as “no binding”.
